Where “and” joins values, the source holds several entries; their conditions need not be identical. Equal entries are not always repeated.
How the values were obtained:
[1] = molecular target: CD47 on mouse erythrocytes (wild type and SAD transgenic mice) (mouse) (UniProt Q61735); assay: cell-based or functional assay
[2] = molecular target: CD47 on mouse erythrocytes (wild type and SAD transgenic mice) (mouse) (UniProt Q61735); assay: flow cytometry of fresh mouse erythrocytes stained with the FITC-coupled antibody
[3] = molecular target: T1, CD47 on mouse erythrocytes (wild type and SAD transgenic mice) (mouse, UniProt Q61735 19-303); assay: cell-based or functional assay
T1 sequence (looked up): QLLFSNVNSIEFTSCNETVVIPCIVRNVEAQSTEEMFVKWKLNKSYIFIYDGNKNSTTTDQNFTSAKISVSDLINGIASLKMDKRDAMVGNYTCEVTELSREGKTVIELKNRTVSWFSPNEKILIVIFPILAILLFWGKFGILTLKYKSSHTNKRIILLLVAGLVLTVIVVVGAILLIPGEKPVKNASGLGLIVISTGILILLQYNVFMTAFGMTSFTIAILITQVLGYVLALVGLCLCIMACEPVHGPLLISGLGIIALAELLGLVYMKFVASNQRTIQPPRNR

Human recombinant TSP1 (thrombospondin-1) (from UniProt P07996 19-1170) (ligand)
echinocytes among SAD mouse erythrocytes under shear [1]: 50% | proportion of echinocytes among wild type mouse erythrocytes under shear [1]: > 10 fold and 30%

mouse-specific fluoroisothiocyanate (FITC)-coupled anti-CD47 monoclonal antibody (clone mIAP301; BD Biosciences)
CD47 expression by FACS (percent) [2]: 85%

B1: 4N1-1 synthetic peptide (RFYVVMWK), TSP1 carboxyterminal peptide (peptide)
peptide: RFYVVMWK
MP shedding by SAD mouse erythrocytes [3]: 40 fold | MP shedding by wild type mouse erythrocytes [3]: 16 fold | echinocytosis of wild type mouse erythrocytes [3]: 2 fold

— patent publication US20140044735A1 (ISNERM INSTITUT NATIONAL DE LA SANTE ET DE LA RECHERCHE …, published 2014)
